Reference: paper PMC9359175

Columns and labels:
Test in all cases: ITC; […]; 298 K; 20 mM HEPES pH 7.5, 150 mM NaCl; […]
[1] = target: 5HB-H3 (SARS-CoV-2 5-helix bundle, truncated construct) (SARS-CoV-2) (UniProt P0DTC2)
[2] = target: 5HB-H4 (SARS-CoV-2 5-helix bundle, shortest construct) (SARS-CoV-2) (UniProt P0DTC2)
[3] = target: 5HB-H1 (SARS-CoV-2 5-helix bundle, longest construct) (SARS-CoV-2) (UniProt P0DTC2)

## HR2P, 36-mer peptide derived from SARS-CoV-2 S HR2 (D1168-L1203)
[1]
  Kd: 18.4 nM
[2]
  Kd: 446 nM
[3]
  Kd: 9 nM
